# Test results from patent publication US20110064733A1.
# Assays:
# [1] = target: Muc1 as expressed by DS6 negative & CM1 positive cell lines (KLE, OVCAR3, SKOV3), without the CA6 glycotope (human) (UniProt P15941); experiment: flow cytometry on KLE cells
# [2] = target: Muc1 as expressed by DS6 negative & CM1 positive cell lines (KLE, OVCAR3, SKOV3), without the CA6 glycotope (human) (UniProt P15941); experiment: flow cytometry on SKOV3 cells
# [3] = target: Muc1 as expressed by DS6 negative & CM1 positive cell lines (KLE, OVCAR3, SKOV3), without the CA6 glycotope (human) (UniProt P15941); experiment: flow cytometry on OVCAR3 cells
# [4] = target: Muc1 as expressed by DS6 negative & CM1 positive cell lines (KLE, OVCAR3, SKOV3), without the CA6 glycotope (human) (UniProt P15941); experiment: flow cytometry on KLE cells (DS6 negative)
# [5] = target: Muc1 as expressed by DS6 negative & CM1 positive cell lines (KLE, OVCAR3, SKOV3), without the CA6 glycotope (human) (UniProt P15941); experiment: flow cytometry on SKOV3 cells (DS6 negative)
# [6] = target: Muc1 as expressed by DS6 negative & CM1 positive cell lines (KLE, OVCAR3, SKOV3), without the CA6 glycotope (human) (UniProt P15941); experiment: flow cytometry on OVCAR3 cells (DS6 negative)
MMF (maximum mean relative fluorescence) (relative fluorescence) [4],MMF (maximum mean relative fluorescence) (relative fluorescence) [5],MMF (maximum mean relative fluorescence) (relative fluorescence) [6],Substance,MMF (maximum mean relative fluorescence) (relative fluorescence) [1],MMF (maximum mean relative fluorescence) (relative fluorescence) [2],MMF (maximum mean relative fluorescence) (relative fluorescence) [3]
–,–,–,CM1 antibody (Muc1 VNTR antibody),562,49.4,192
27.5,17.5,21.2,murine anti-CA6 monoclonal antibody DS6,–,–,–
